Results reported in PMC9544338, “Restoration of the GTPase activity and cellular interactions of Gαo mutants by Zn^2+ in GNAO1 encephalopathy models” (Science Advances, 2022).

Target: T1, Gαo-GFP (C-terminally tagged) wild type (human, UniProt P09471 1-354)
T1 construct: Gαo (GNAO1); also called WT Gαo; source: N2a cells, transfected, in lysate; not shown: GFP, C-terminal, kept
Assay: co-IP; N2a cells cotransfected with His6-RGS19 and Gαo-GFP (C-terminally tagged) variants, treated with 1 μM ZPT for 3 hours before IP of Gαo with a nanobody against GFP; Western blot; fold against DMSO-treated cells
Conditions: partners not purified

T1 sequence (P09471 whole entry): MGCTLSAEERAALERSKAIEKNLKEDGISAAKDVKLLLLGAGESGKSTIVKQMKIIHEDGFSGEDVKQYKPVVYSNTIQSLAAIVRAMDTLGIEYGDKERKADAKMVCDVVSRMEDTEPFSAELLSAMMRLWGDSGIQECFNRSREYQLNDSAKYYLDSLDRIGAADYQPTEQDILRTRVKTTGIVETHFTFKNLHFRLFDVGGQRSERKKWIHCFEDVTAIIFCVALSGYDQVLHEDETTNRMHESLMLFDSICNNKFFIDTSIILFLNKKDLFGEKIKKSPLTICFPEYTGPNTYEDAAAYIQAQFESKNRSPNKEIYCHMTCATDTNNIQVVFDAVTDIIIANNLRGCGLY

B1: His6-RGS19 (natural protein, UniProt P49795 1-217, looked up)
chain: MPTPHEAEKQITGPEEADRPPSMSSHDTASPAAPSRNPCCLCWCCCCSCSWNQERRRAWQASRESKLQPLPSCEVCATPSPEEVQSWAQSFDKLMHSPAGRSVFRAFLRTEYSEENMLFWLACEELKAEANQHVVDEKARLIYEDYVSILSPKEVSLDSRVREGINKKMQEPSAHTFDDAQLQIYTLMHRDSYPRFLSSPTYRALLLQGPSQSSSEA
notes: RGS19 (regulator of G protein signaling 19); plasmid previously described; source: N2a cells, transfected, in lysate
- fold increase of the interaction by ZPT over DMSO: ~2 fold
